From PMC3778281

Target: F8–TNF (murine)
Assay: SEC

stoichiometry N: 3
Substance: F8–TNF
